{"source": "patent US20070178448A1", "about": "(Scripps Research, published 2007)", "binders": {"B1": {"name": "M13KE-SBP phage prepared in TTS/RS 3 in the presence of p-acetylphenylalanine 3 (streptavidin binding peptide AGXTLLAHPQ, X = p-acetyl-L-phenylalanine, as … (peptide)", "chain": "AG[Phe(4-Ac)]TLLAHPQ", "modifications": "not fully specified (C-terminus)", "notes": "also called M13KE-SBP phage prepared in TTS/p-acetylphenylalanine 3; M13KE-SBP prepared in TTS/RS 3; not shown: pIII minor coat protein of M13 filamentous phage (vector M13KE); peptide fused at its N-terminus after the signal peptid"}}, "target": "T1, streptavidin (UniProt P22629 37-163, limits assumed)", "T1 construct": "also called streptavidin coated microtiter plates (Pierce); strepavidin", "T1 sequence (P22629 37-163 limits assumed)": "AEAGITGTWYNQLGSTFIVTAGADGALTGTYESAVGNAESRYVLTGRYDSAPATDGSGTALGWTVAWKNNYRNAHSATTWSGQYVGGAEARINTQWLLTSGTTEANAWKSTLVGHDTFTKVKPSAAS", "assay": "phage capture on streptavidin coated wells, elution with 10 µM biotin, titer of input and output phage", "procedure": "In a model phage selection experiment, wild-type phage and phage carrying the mutant SBP with p-azido-L-phenylalanine were exposed to streptavidin coated wells, followed by recovery of the bound phage. Titer of the recovered enriched phage following elution was used as a measure of the binding specificity of the page for the streptavidin.\nSpecifically, two wells from a streptavidin coated microtiter plate (Pierce) were blocked with 300 μL of 4% BSA in 1×PBS at 4° C. overnight. After washing, separate streptavidin coated wells were incubated with similar numbers of phage (each in 100 μL) of either M13KE-SBP prepared in TTS/RS 3 or M13KE wild type phage at room temperature for 2 hours and washed 10 times with 200 μL PBST. The bound phage was eluted from the plate solid support with 10 μM biotin 1×PBS, pH 7.4. The input and output phage were titered (see, FIG. 9).", "note": "Non-standard residues stand in square brackets, D forms with d. No end group written: not given here. Phe(4-Ac) = CC(=O)c1ccc(C[C@H](N)C(=O)O)cc1"}
{"binder": "B1", "values": [{"measurement": "recovery rate, fold over that of M13KE wild-type phage", "value": 9000, "unit": "fold"}]}
